Paper PMC7459424

Target: T1, recombinant Strep-Flag-IL-17 (SF-IL-17), murine (mouse), Q62386
T1 chain: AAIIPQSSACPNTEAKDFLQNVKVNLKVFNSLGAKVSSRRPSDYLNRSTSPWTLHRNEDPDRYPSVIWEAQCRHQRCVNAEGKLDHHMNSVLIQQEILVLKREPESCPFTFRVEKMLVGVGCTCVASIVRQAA
Assay: SDS-PAGE without and with DTT, Coomassie stain; purified SF-IL-17 in SDS sample buffer, untreated or reduced with 50 mM DTT
Settings: remark: other sources report otherwise

- stoichiometry N: 2
B1: recombinant Strep-Flag-IL-17 (SF-IL-17), murine, Q62386 26-158 (ligand)
chain: T1 chain
